Assay results: the Immune Epitope Database (IEDB)

Experiments:
HLA-A*24:02 [1] = test: IEDB peptide-MHC binding, purified MHC/competitive/fluorescence; ≥ and ≤ were set here for values at or beyond the usual limits of such assays
HLA-A*32:01 = test: IEDB peptide-MHC binding, purified MHC/competitive/radioactivity; filed as Kd, often an IC50 or EC50 that approximates it; ≥ and ≤ were set here for values at or beyond the usual limits of such assays
HLA-A*02:01 [2] = test: as above
HLA-B*08:01 = test: as above
HLA-B*35:01 = test: as above
HLA-B*07:02 = test: IEDB peptide-MHC binding, purified MHC/direct/fluorescence; filed as Kd, often an IC50 or EC50 that approximates it; ≥ and ≤ were set here for values at or beyond the usual limits of such assays
HLA-B*27:05 = test: as above; conditions: source organism: Tacaribe virus strain V7
HLA-A*02:01 [3] = test: IEDB peptide-MHC binding, purified MHC/competitive/fluorescence; ≥ and ≤ were set here for values at or beyond the usual limits of such assays
HLA-A*24:02 [4] = test: IEDB peptide-MHC binding, purified MHC/competitive/radioactivity; filed as Kd, often an IC50 or EC50 that approximates it; ≥ and ≤ were set here for values at or beyond the usual limits of such assays; conditions: source organism: Mammarenavirus mopeiaense
HLA-A*26:01 = test: as above; conditions: source organism: Mammarenavirus mopeiaense
HLA-A*23:01 = test: as above; conditions: source organism: Mammarenavirus mopeiaense
HLA-A*30:01 = test: as above; conditions: source organism: Mammarenavirus mopeiaense
HLA-A*02:01 [5] = test: IEDB peptide-MHC binding, purified MHC/competitive/fluorescence; filed as Kd, often an IC50 or EC50 that approximates it; ≥ and ≤ were set here for values at or beyond the usual limits of such assays
HLA-B*58:01 = test: IEDB peptide-MHC binding, purified MHC/direct/fluorescence; filed as Kd, often an IC50 or EC50 that approximates it; ≥ and ≤ were set here for values at or beyond the usual limits of such assays; conditions: source organism: SARS-CoV1
HLA-A*69:01 = test: as above; conditions: source organism: SARS-CoV1
HLA-A*11:01 = test: as above; conditions: source organism: SARS-CoV1
HLA-B*15:01 = test: as above; conditions: source organism: SARS-CoV1
HLA-A*02:06 = test: IEDB peptide-MHC binding, purified MHC/competitive/radioactivity; filed as Kd, often an IC50 or EC50 that approximates it; ≥ and ≤ were set here for values at or beyond the usual limits of such assays; conditions: source organism: Vaccinia virus WR
HLA-A*02:02 = test: as above; conditions: source organism: Vaccinia virus WR
HLA-A*02:03 = test: as above; conditions: source organism: Vaccinia virus WR
[6] = source organism: Dengue virus 1 Brazil/97-11/1997
[7] = source organism: Vaccinia virus Copenhagen
[8] = source organism: Lassa virus Josiah
[9] = source organism: Dengue virus 4 Philippines/H241/1956
[10] = source organism: Dengue virus 3 Martinique/1243/1999
[11] = source organism: Zaire ebolavirus
[12] = source organism: Vaccinia virus WR
[13] = source organism: Sudan ebolavirus

HEHDQIGDI
IC50 (HLA-A*24:02 [1]; source organism: Variola virus): 23.8 µM

IHAHHQWMTT
Kd (HLA-A*32:01; [6]): ≥ 26.8 µM

ILYYLSAKI
Kd (HLA-A*32:01; [7]): 0.00887 µM

IMKNHLRDI
Kd (HLA-A*02:01 [2]; [8]): 12.5 µM

IMVGNETGL
Kd (HLA-A*02:01 [2]; [8]): 4.17 µM

INRKGKVIGL
Kd (HLA-B*08:01; [9]): 3.66 µM

IPFSTEDGQG
Kd (HLA-B*35:01; [10]): 1.73 µM

IPRRIRQGL
Kd (HLA-B*07:02; source organism: Human immunodeficiency virus type 1 (WMJ2 ISOLATE)): 0.0948 µM

IRELMSVPY
Kd (HLA-B*27:05): ≥ 20 µM

KIDQIIHDF
IC50 (HLA-A*24:02 [1]; [11]): 46.9 µM
IC50 (HLA-A*02:01 [3]; [11]): 66.4 µM

KMSYSSVMI
Kd (HLA-A*32:01; [12]): 0.014 µM

KRTLAAMPE
IC50 (HLA-A*24:02 [1]; [11]): 42.9 µM

KTINYSFFL
Kd (HLA-A*32:01; [12]): ≤ 0.001 µM

LAKRFSRGL
Kd (HLA-B*08:01; source organism: Dengue virus 3 Singapore/8120/1995): 0.962 µM

LAVSGVYPL
Kd (HLA-B*35:01; source organism: Dengue virus 1 Singapore/S275/1990): 0.0832 µM

LCLSGEGWPY
Kd (HLA-A*24:02 [4]): ≥ 70.3 µM
Kd (HLA-A*26:01): ≥ 69.7 µM
Kd (HLA-A*23:01): ≥ 70 µM
Kd (HLA-A*30:01): ≥ 70.4 µM
Kd (HLA-A*32:01; source organism: Mammarenavirus mopeiaense): ≥ 53.2 µM

LEHGLFPQL
IC50 (HLA-A*24:02 [1]; [11]): 8.3 µM
IC50 (HLA-A*02:01 [3]; [11]): ≥ 73.2 µM

LFLPKLVVG
IC50 (HLA-A*24:02 [1]; [11]): 1.56 µM
IC50 (HLA-A*02:01 [3]; [11]): 35.3 µM

LLGCAANWI
Kd (HLA-A*02:01 [2]; source organism: Hepatitis B virus subtype ayw): ≥ 5 µM

LLGPVIGML
Kd (HLA-A*02:01 [5]; source organism: Escherichia coli 536): 0.0034 µM

LMTLKDAML
Kd (HLA-A*02:01 [2]; [8]): 0.893 µM

LPMLYFLYV
Kd (HLA-B*08:01; [12]): 0.00251 µM

LSNYIVSIF
Kd (HLA-A*32:01; [12]): 0.111 µM

LYDRLASTV
IC50 (HLA-A*24:02 [1]; [13]): 1.32 µM
IC50 (HLA-A*02:01 [3]; [13]): 7.48 µM

MLLCHKPTL
Kd (HLA-B*08:01; [12]): 0.0187 µM

MPTYKHLIM
Kd (HLA-B*08:01; [12]): 0.00013 µM

MYKSRVERV
Kd (HLA-B*08:01; [12]): 0.0465 µM

NAPDDLVLF
IC50 (HLA-A*24:02 [1]; [11]): ≥ 107 µM

NLATSIYTI
Kd (HLA-A*02:01 [5]; source organism: Variola virus): 0.0011 µM

NMKFKNSVE
Kd (HLA-B*08:01; [12]): 1.34 µM

NPKFFKVYL
Kd (HLA-B*08:01; [12]): 0.19 µM

PNERRAWNSL
Kd (HLA-A*32:01; source organism: Dengue virus 4 Dominica/814669/1981): 1.3 µM

PWLTEKEAM
IC50 (HLA-A*24:02 [1]; [11]): 0.435 µM
IC50 (HLA-A*02:01 [3]; [11]): ≥ 216 µM

QLVKGFERFQ
Kd (HLA-A*02:01 [5]; source organism: Variola virus): 0.634 µM

QVKDEKLNL
Kd (HLA-A*02:01 [5]; source organism: Variola virus): 0.324 µM

RLGYILEDI
Kd (HLA-A*32:01; [9]): 7.18 µM

RNALDNLAVL
Kd (HLA-B*08:01; source organism: Dengue virus 2 16681-PDK53): 6.43 µM

RPRHQGVMV
Kd (HLA-B*07:02; source organism: Homo sapiens): 0.0515 µM

RTNDWDFVV
Kd (HLA-A*02:01 [2]; source organism: dengue virus type 2): 0.167 µM

SIFLIFSII
Kd (HLA-B*08:01; [7]): 0.858 µM

SIHAHHQWM
Kd (HLA-B*08:01; [6]): 0.349 µM

SIINSNVTW
Kd (HLA-A*32:01; source organism: Vaccinia virus L-IPV): 0.0111 µM

SIRYRQRLI
Kd (HLA-B*08:01; [12]): 0.218 µM

SIVSPFIPLL
Kd (HLA-A*02:01 [2]; source organism: Hepatitis B virus): ≥ 25 µM

SKGWHDWQQV
Kd (HLA-A*32:01; [10]): 1.4 µM

SKSTDFLDP
IC50 (HLA-A*24:02 [1]; [11]): ≥ 592 µM

SLLMWITQCFL
Kd (HLA-A*02:01 [2]; source organism: Homo sapiens): ≥ 50 µM

SSKYYIKNI
IC50 (HLA-A*24:02 [1]; source organism: Vaccinia virus): ≥ 1450 µM

STMDVNHPI
Kd (HLA-A*32:01; [12]): 0.00742 µM

TMYYKDVTV
Kd (HLA-A*02:01 [2]; source organism: Human alphaherpesvirus 1 strain 17): 0.025 µM

TTLPVNVAF
Kd (HLA-B*58:01): 0.329 µM
Kd (HLA-A*69:01): 0.02 µM
Kd (HLA-A*11:01): ≥ 27.3 µM
Kd (HLA-B*15:01): 1.76 µM
Kd (HLA-B*07:02; source organism: SARS-CoV1): 5.76 µM

VHEHDQIGD
IC50 (HLA-A*24:02 [1]; source organism: Variola virus): 1.87 µM

VKPKGKVVDL
Kd (HLA-B*08:01; [9]): 2.15 µM

VMYAFTTPL
Kd (HLA-A*02:06): 0.00571 µM
Kd (HLA-A*32:01; [12]): 0.000291 µM
Kd (HLA-A*02:02): 0.000573 µM
Kd (HLA-A*02:03): 0.00128 µM

VYQVNNLEE
IC50 (HLA-A*24:02 [1]; [11]): ≥ 254 µM

WALCEALTL
Kd (HLA-B*35:01; source organism: Dengue virus 2 Jamaica/1409/1983): 0.641 µM

WALCESITL
Kd (HLA-B*35:01; [6]): 0.0757 µM

YRGTTFAEG
IC50 (HLA-A*24:02 [1]; [11]): ≥ 147 µM
